Data from patent publication US20240368668A1, “SUBSTRATES AND BIOMARKERS OF ADAMTS7” (The Broad Institute, Inc., priority 2021, published 2024).
Square brackets hold non-standard residues; d marks the D form. Ends that are not written are not given here. deamidated = deamidated asparagine; Met(O) = CS(=O)CC[C@H](N)C(=O)O

These substances were tested against T1, mouse ADAMTS7 (Mus musculus, UniProt Q68SA9) (assay: TMT10 TAILS N-terminomics, SMC1 experiment (Ad-mADAMTS7 WT vs EQ vs Luc, technical replicates, trypsin digest)). Conditions: TAILS neo-N-terminal peptide abundance; log fold change, Ad-mADAMTS7 WT over Luc.
T1 construct: Full-length mouse Adamts7 1-1857 (Uniprot Q68SA9, WT or E373Q catalytic mutant); expressed in transfected cells; host or cells: Human Coronary Artery Smooth Muscle Cells (HCA-SMC, Lonza), adenovirus 50 MOI
T1 sequence (Q68SA9 221-1657): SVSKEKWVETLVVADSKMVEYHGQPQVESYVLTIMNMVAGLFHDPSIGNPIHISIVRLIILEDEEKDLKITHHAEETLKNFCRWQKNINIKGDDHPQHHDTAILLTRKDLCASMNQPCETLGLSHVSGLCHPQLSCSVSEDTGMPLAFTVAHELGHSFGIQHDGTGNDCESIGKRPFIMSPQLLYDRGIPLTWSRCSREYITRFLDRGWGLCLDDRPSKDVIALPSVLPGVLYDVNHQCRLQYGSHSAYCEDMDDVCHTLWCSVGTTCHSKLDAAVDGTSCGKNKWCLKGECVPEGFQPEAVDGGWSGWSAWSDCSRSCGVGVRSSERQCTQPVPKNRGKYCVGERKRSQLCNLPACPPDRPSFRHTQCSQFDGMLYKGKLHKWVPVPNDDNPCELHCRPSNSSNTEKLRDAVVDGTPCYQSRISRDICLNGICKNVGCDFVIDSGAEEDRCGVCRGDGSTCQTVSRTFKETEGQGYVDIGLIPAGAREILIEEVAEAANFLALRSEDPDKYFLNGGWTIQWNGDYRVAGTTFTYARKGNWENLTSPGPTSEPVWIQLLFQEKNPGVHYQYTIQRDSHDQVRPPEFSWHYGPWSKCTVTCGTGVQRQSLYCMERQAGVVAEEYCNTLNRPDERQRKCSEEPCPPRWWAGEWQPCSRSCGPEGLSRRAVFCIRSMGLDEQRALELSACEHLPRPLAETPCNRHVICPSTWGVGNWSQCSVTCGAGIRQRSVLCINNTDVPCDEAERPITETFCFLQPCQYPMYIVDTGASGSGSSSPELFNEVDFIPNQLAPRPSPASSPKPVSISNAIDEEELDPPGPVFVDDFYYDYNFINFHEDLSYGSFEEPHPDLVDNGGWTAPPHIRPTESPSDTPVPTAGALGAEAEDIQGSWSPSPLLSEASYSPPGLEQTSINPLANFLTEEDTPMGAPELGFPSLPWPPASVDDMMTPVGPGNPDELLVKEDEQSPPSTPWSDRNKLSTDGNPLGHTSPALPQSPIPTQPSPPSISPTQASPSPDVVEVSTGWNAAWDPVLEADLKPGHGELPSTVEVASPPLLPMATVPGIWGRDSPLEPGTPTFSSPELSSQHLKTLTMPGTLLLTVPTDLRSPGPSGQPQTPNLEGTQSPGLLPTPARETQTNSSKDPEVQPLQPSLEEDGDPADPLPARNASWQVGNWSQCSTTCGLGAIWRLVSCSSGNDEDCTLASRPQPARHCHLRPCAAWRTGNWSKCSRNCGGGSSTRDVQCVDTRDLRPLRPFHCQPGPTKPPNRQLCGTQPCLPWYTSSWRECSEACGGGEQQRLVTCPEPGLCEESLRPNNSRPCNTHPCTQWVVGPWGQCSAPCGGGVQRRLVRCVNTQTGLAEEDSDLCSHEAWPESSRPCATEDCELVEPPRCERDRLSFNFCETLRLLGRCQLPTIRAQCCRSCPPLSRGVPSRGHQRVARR
Format: cell-based
Outline: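 Full-length mouse ADAMTS7 (WT or E373Q mutant, C-terminal 3xFLAG) or luciferase was transduced via adenovirus, 50 MOI, into HCA-SMC (SMC1, SMC2) or HUVEC. SMC1: pooled media, technical triplicates 400 ug; SMC2: process triplicates 300 ug; HUVEC: process triplicates 200 ug, bFGF2 10 ng/ml.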

Substance	logFC.mWT.over.Lux
CDC37_43 (FQKEKEELDR; listed as Homo sapiens)	1.75
CDH11_467 (HQEAKVPVAIR; listed as Homo sapiens)	2.02
COL1A2_80 (QYDGKGVGLGPGPMGLMGPR; listed as Homo sapiens)	2.55
COL1A2_91 (GPMGLMGPR; listed as Homo sapiens)	1.09
COL1A2_305 (LTGAKGAAGLPGVAGAPGLPGPR; listed as Homo sapiens)	1.46
COL1A2_389 (SAGPPGPPGLR; listed as Homo sapiens)	1.12
COL1A2_681 (VGAPGPAGATGDR; listed as Homo sapiens)	1.27
COL1A2_866 (LLGAPGILGLPGSR; listed as Homo sapiens)	3.48
COL1A2_1028 (LQGLPGIAGHHGDQGAPGSVGPAGPR; listed as Homo sapiens)	1.51
COL1A2_1037 (HHGDQGAPGSVGPAGPR; listed as Homo sapiens)	2.30
COL1A2_1127 (SLRPKDYEVDATLKSLNNQIETLLTPEGSR; listed as Homo sapiens)	2.23
COL4A2_71 (YNGPPGLQGFPGLQGR; listed as Homo sapiens)	1.77
COL4A2_172 (YALPKEER; listed as Homo sapiens)	5.97
COL8A1_90 (MKEIQPAPR; listed as Homo sapiens)	1.10
COL18A1_1505 (LQPPVVQLHDSNPYPR; listed as Homo sapiens)	1.41
ECM1_43 (YAAPPSPPLSR; listed as Homo sapiens)	0.63
MAN2A1_51 (LQEKIDHLER; listed as Homo sapiens)	2.04

Substance	logFC.mWT.over.Lux
MAP1B_1065 (LTTPTKQLGAQSPGR; listed as Homo sapiens)	1.11
MAP4_816 (VASTGPSSR; listed as Homo sapiens)	1.44
MGAT4B_28 (LSGQKGDVVDVYQR; listed as Homo sapiens)	1.43
NID2_291 (HSSVPLGR; listed as Homo sapiens)	3.96
NID2_467 (LEDNIGSNTEVFTYNAANKETCEHNHR; listed as Homo sapiens)	2.58
NUCB1_317 (FLASTQR; listed as Homo sapiens)	4.76
NUCB1_389 (LQQAVLHMEQR; listed as Homo sapiens)	2.25
OS9_54 ([code q]SQSSDVVIVSSKYKQR; also: modified N-terminal Gln; listed as Homo sapiens)	2.67
PAPPA_41 (AAGPATCATR; listed as Homo sapiens)	3.83
PDLIM4_104 (IDPEIQDGSPTTSR; listed as Homo sapiens)	1.00
POSTN_413 (FSDDTLSMDQR; listed as Homo sapiens)	2.29
POSTN_790 (FIEGGDGHLFEDEEIKR; listed as Homo sapiens)	0.87
POSTN_807 (LLQGDTPVR; listed as Homo sapiens)	1.10
PPP1R18_295 (LSETLTR; listed as Homo sapiens)	3.60
PXDN_1341 (SYQEDKPTKKTR; listed as Homo sapiens)	6.62
PXDN_1393 (QKTITDLR; listed as Homo sapiens)	4.88

Further lines, results first:

logFC.mWT.over.Lux	Substance
1.08	CLEC11A_50 (HLQEALGLPAGR; listed as Homo sapiens)
1.66	COL1A2_113 (FQGPAGEPGEPGQTGPAGAR; listed as Homo sapiens)
3.51	COL1A2_270 (VGNAGPAGPAGPR; listed as Homo sapiens)
1.17	COL1A2_425 (ASGPAGVR; listed as Homo sapiens)
1.18	COL1A2_630 (VGTAGPSGPSGLPGER; listed as Homo sapiens)
0.84	COL1A2_731 (AAGQPGAKGER; listed as Homo sapiens)
2.56	COL1A2_960 (AGAPGPHGPVGPAGKHGNR; listed as Homo sapiens)
0.87	COL5A1_544 (SQAQAILQQAR; listed as Homo sapiens)
1.63	LTBP2_1602 (EAGVHFR; listed as Homo sapiens)
1.29	MAP4_815 (AVASTGPSSR; listed as Homo sapiens)
2.23	MMP1_24 (LETQEQDVDLVQKYLEKYYNLKN(deamidated)DGR; listed as Homo sapiens)
4.80	NID2_374 (VGGPDLKGQVEPWDER; listed as Homo sapiens)
3.35	NID2_951 (YAYPGAR; listed as Homo sapiens)
1.70	NUCB1_228 (LKEVWEELDGLDPNR; listed as Homo sapiens)
2.23	OS9_55 (SQSSDVVIVSSKYKQR; listed as Homo sapiens)
1.51	POLR3G_88 (LFCSHWSHIPGFK; listed as Homo sapiens)
1.77	POSTN_754 (IITGPEIKYTR; listed as Homo sapiens)
1.13	PSAP_171 (F[Met(O)]ANIPLLLYPQDGPR; listed as Homo sapiens)
